Measured values reported in publication PMC6895269.
pKd: −log10 of the molar value. One block for each substance: values may come before it.

Experiments:
[1] = tested on: Rtf1 HMD74-184 (histone modification domain) (Saccharomyces cerevisiae); assay: EMSA; settings: 50 mM Tris-HCl pH 7.5, 150 mM NaCl, 2 mM arginine, 0.01% CHAPS, 0.01% NP-40, 1 uM BSA, 3 nM nucleosome, 30 min on ice, 4-12% Tris-glycine native PAGE
[2] = molecular target: acidic patch mutant X. laevis nucleosome (H2A E61A, E64A, D90A, E92A) (X. laevis); assay: native gel or EMSA; 3 nM nucleosomes with increasing recombinant HMD, 30 min on ice, 50 mM Tris-HCl pH 7.5, 150 mM NaCl, 2 mM arginine, 0.01% CHAPS, 0.01% NP-40, 1 μM BSA; 4-12% native PAGE, SYBR Green; Kd by non-linear least squares regression
[3] = molecular target: wild-type X. laevis nucleosome (X. laevis); assay: as above

Substance: acidic patch mutant X. laevis nucleosome (H2A E61A, E64A, D90A, E92A)
- pKd ([1]; histone H2A E61A;E64A;D90A;E92A): 6.60

- pKd [2]: 6.60
- pKd [3]: 7.00
Substance: recombinant HMD_(74-184) (Rtf1 histone modification domain) (from UniProt P53064 74-184) (domain or fragment)

Substance: wild-type X. laevis nucleosome
- pKd ([1]; wild-type histone octamer): 7.00
